± gives the standard deviation of the averaged measurements.

One data set deals with MCF7. As to the kind of experiment: percentage of EdU-negative (G0-arrested) nuclei per well, 72 h; higher = more G0 arrest. The settings on record: reference: sequence is the full UniProt precursor, the tested protein was the secreted form or ectodomain.
Another data set concerns hTERT-HMEC. The data set is described as above. Particulars: reference: sequence is the full UniProt precursor, the tested protein was the secreted form or ectodomain.
Setting [1] is: protein concentration 0.03125 µM.
The mark [2] stands for this setting: protein concentration 0.3125 µM.
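Also: secreted proteins added to cultured cells, EdU pulse at the end, nuclei found by Hoechst imaging, EdU status from nuclear versus surrounding ring intensity ratio, PBS as neutral control.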

In the case of “MDPKLGRMAASLLAVLLLLLERGMFSSPSPPPALLEKVFQYIDLHQDEFVQTLKEWVAIESDSVQPVPRFRQELFRMMAVAADTLQRLGARVASVDMGPQQLPDGQSLPIPPVILAELGSDPTKGTVCFYGHLDVQPADRGDGWLTDPYVLTEVDGKLYGRGATDNKGPVLAWINAVSAFRALEQDLPVNIKFIIEGMEEAGSVALEELVEKEKDRFFSGVDYIVISDNLWISQRKPAITYGTRGNSYFMVEVKCRDQDFHSGTFGGILHEPMADLVALLGSLVDSSGHILVPGIYDEVVPLTEEEINTYKAIHLDLEEYRNSSRVEKFLFDTKEEILMHLWRYPSLSIHGIEGAFDEPGTKTVIPGRVIGKFSIRLVPHMNVSAVEKQVTRHLEDVFSKRNSSNKMVVSMTLGLHPWIANIDDTQYLAAKRAIRTVFGTEPDMIRDGSTIPIAKMFQEIVHKSVVLIPLGAVDDGEHSQNEKINRWNYIEGTKLFAAFFLEMAQLH [Q96KN2]”, the “percentage of EdU-negative” value in the data set on MCF7 (setting [1]) stood at 24.9 ± 0.15%; in the data set with MCF7 (setting [2]), 23 ± 2.2%; in the data set on hTERT-HMEC (setting [1]) it was 5.23 ± 0.23%; with hTERT-HMEC (setting [2]), 5.9 ± 0.65%.
